The values below come from the DeepSol protein solubility set.

This series is described as follows: soluble on expression in E. coli; label from the status in PepcDB or PDB records.
Take “MFNKKENSSPDVFDTLIGVNTFLEGNIETEGTVRIDGKIKGNVKVKGDVYIGKDANINGNISANNVYMSGRVDGNIEAKGVLRILSTAQLYGDILVQSLISDEGSIFEGNCKMVSASNAQNSDGSVSKNNKNVKDKDGDKSHTSA”: the “soluble on expression in E. coli” value is recorded as “not soluble”.

As to “MSLGKLSILSKRKYTMKNQIQFSTFNFKDLPVRVILDPKGEFWFCGTDVCHILGYTNSRKALQDHCKQGGVTKRYTPTKSADQEMTFINEPNLYRLIIKSRKPEAEPFEAWVFEEVLPQIRKTGKYQLQPQQLALPEPEKKFSFEFTEYELQQLVWLWFAFMRGIVTFQHIEKAFKALGSNMSGDIYGQAYEYLSVYAQQTKSEGHHHHHH”, the “soluble on expression in E. coli” value is on record as “not soluble”.

“MSLSSLGEELETKISEEVGFKPLGIKRILPAASTKLPFASLDNFAIDNHNNKYAAASGELLICGDLQKLREYVTNDNEEDNYEPEYKHEISNIIALKFMNGKLILVTKSGRICEYSTENLNQELMNHELKLDLVSVKTLPSKIIMLDSSNVLKGLSLSNLNLENIAENISSFDVLYDKLVYISVLKDIYVSDTISNGVNKEIILPESLSEELDDGYEALDIKILSENEYFVVFGNNVSPDESDPSYDHKTYVVSQKEESVVYQETFDIAPAFASVLRYPCYYNVILPGIFEEDKNVNIIGSATSSEISVWDSVNVVQPDQDSERAVFPISKETDEDTTPIGMCLDFSTVGEIPEPCPGVDNTDSLPLVYSLTNEGFLQINGFYHTGLIKAGKYDIKLLGERIYSIYEQDGGEVEEGHHHHHH”: the “soluble on expression in E. coli” value is “soluble”.

On to “AAIYHLDVSGQATIRFRPPAFLKTLVSEHAGTTRLNTLSMIHHDDRHMLSNAYSKLREAKHSLTLVYRIVTPEGKLHWIEDHMRSSFSDD”, for which the “soluble on expression in E. coli” value is given as “not soluble”.

Take “MKTNPAVDSARLGLLLNELRLPAIKVMWPQFAERADKEGWPAARFLAAIIEHELAERDRRRIERHLAEARLLPGKTLDTFEFEAVPMISKAQVMAITAGDSWLEKGANLLLFGPPGGGKSHLASAIGLALIETGWRVMFTRTTDLVQKLQVARRELGLEAAINRLDRFHLLILDDLAYVTKDQAETSVLFELISARYERRSLLITANQPFGEWGKVFPDPSNARYPCCAAALEHHHHHH”: the “soluble on expression in E. coli” value is reported as “not soluble”.

In the case of “MSLLFYRPLASIQALTFDLDDTLYDNRPVIKQVEEKVTEWLLSEHPITATRPLAWWLAMKRDIARRFPEQCHDVSQWRYLQVQHGLLELGYAQPEAEQAASETLEQVMRWRNQVDVPAETHRVLAQLAAKVPLIAITNGNVQIEKIGLSGYFQTVLRAGPDGRAKPYPDLFAQAAQQLQLEPRSILHVGDHLQTDVLGARQNGFQACWFNDQGQSIRRLAKASVLPDVEIERLSELLLIVNEGHHHHHH”, the “soluble on expression in E. coli” value is “soluble”.

With “MSGKRKLEDYKSIIGEEEVSKIQEKAEKLKGRSFVHVNSTSFGGGVAEILHSLVPLLRSIGIEARWFVIEGPTEFFNVTKTFHNALQGNESLKLTEEMKELYLNVNRENSKFIDLSSFDYVLVHDPQPAALIEFYEKKSPWLWRCHIDLSSPNREFWEFLRRFVEKYDRYIFHLPLEHHHHHH”, the “soluble on expression in E. coli” value is “not soluble”.

With “MGSDKIHHHHHHMSQSMVGKHAMWPKENDVIFSISGRAQAAEKAFGMDNVINATIGALMDDSGKLITMKTVYEEYKALDNCEIGAYAALEGQPDYLEAVKKVFFRDYLPEGHIRVLASPGGSGAIKLAVWNYTNEGDEVLTSDWFWSPYVSIAEEANRKVVNYQLFDENRRFNFESFKEKFVNIAEKQGRVFTIINTPAHNPTGYSVADDEWDKILDLSKEVAKDKDKKIIFFVDSAYIDFAGDDDVCRKFFKKFSNLPENVLVLVGFSMSKGFTAYGMRMGAIICISSSEDVAEEFHYSCVHSCRANWSNCNRSAMAVLSNIVNDPKKFKEYEDEKEIYKNMLTRRADVFVKEAERVGLEILPYIAGFFVSIPCDNPKEVCEELTKHNLFAVPLKMGLRFAVCAVSEDKCKKAPSIIKEALESLEVKINN”, the “soluble on expression in E. coli” value was “not soluble”.

In the case of “MEIPSYASNIQPYGSQSGTKIASENDNAKSVSLSGDNSRSVSRTDKLSEHFSEQVRARQQESAETAMAQAKQRQRLNEEQLAKMVEQMNEFVKSINKGLSFRLDRESGREVVTIYEASTGDIIRQIPEEEMLEVLRRLAREQDHRSGLLMAKV”, the “soluble on expression in E. coli” value is listed as “not soluble”.

Consider “TRINLTLVSELADQHLMAEYRQLPRVFGAVRKHVANGKRVRDFKISPTFILGAGHVTFFYDKLEFLRKRQIELIAECLKRGFNIKDTTVQDISDIPQEFRGDYIPHEASIAISQARLDEKIAQRPTWYKYYGKAIYA”, for which the “soluble on expression in E. coli” value is “soluble”.

On to “MDGEEKTYGGCEGPDAMYVKLISSDGHEFIVKREHALTSGTIKAMLSGPGQFAENETNEVNFREIPSHVLSKVCMYFTYKVRYTNSSTEIPEFPIAPEIALELLMAANFLDC”, for which the “soluble on expression in E. coli” value was “soluble”.

For “MLIRSAKPEDAEFIGSIRVAAWQAAYRGFMPDTYLASLDPGANLDELRAALRAENPPFTLRIAETEGQPIAFSILGKPRYNADQSIVELWALNVHPTHWRKGAGQQLVRQVLLDAKEQKFVSVELWCIQGNLAAQRLYEICGFVPNSQVRTTSSLTGYPLHELAYTYAL”, the “soluble on expression in E. coli” value was “not soluble”.

With “LIIFVFGYYLAFNQNKYVSYNDETKQFVHTDTSKIMENLVNRQQGIYYFGFPTCPWCLELLPILDKELEKESMNAYAVNTRGDDYTENDDELLQKFYQKYTGDESLSVPFIVAINNKKEVQVHIGTVKNHDATKTKLKRRQKE”, the “soluble on expression in E. coli” value is reported as “not soluble”.

Regarding “MSLGAGQPLGGYAEDLEGRQADLPKYSRANVRIVFAAVFPESNVYQGGEGYPTPSSSRLLLLDQVKTYYALSSIHGVEIIESWRSAQEVLEAPRWRLGLLLHLEGADALADILDLELLHRLGFRSLGLTWNHDNRWAASCKTRRDYGLTQSGEDLVKKAAELGVIIDLAHASDKTVADAASASPKPVIVSHANFRWKVDSPRNVGEEAVEAVVSKGGVIGYSLISTLITRGRHPTLHDVASQMAEFVEVYGHRHLAIGTDYHGLLDIRPPTGLESIDRLPRLLEALADAGLSDRQIEAIAYGNIARVIREVLPGSEGHHHHHH”, the “soluble on expression in E. coli” value was “soluble”.

As for “MSLAKSYNAGINIIPTPRSLEKREGSFKLSDGVSIGAITPEAKKIATYFAAKISLATGYDVKVEDKGEITLVLDSCATFSPEGYALDVESSRVQVTACSPRGLFYGMQSFLQLLPAEIESAGIVRDVDWEAPAANIIDSPRFAYRGIHMDPCRHFMTVEEVKKQIDVLSMFKINTIHWHLTDDQGWRIEIKQYPGLAEIGGRRIEGEGVEYGPFYYTQEEIKDIVSYAAERFITIIPELEIPGHELAAISAYPGLSCKGDPVTPRNIWGVEDIVMCPGKESVFTFLENVIDEMVALFPGTYFHIGGDECPKESWKSCPLCQKRILEEGIKPDGKHTSEQLLHTYVVERIGKYLARYDKKIIGWDEILEGKPDSTATIMSWRGDAGGISAALSGHDAIMSPGPNGLYLDYYQGDSKIEPIAIGGCSTLEKVYNYNPVPDTLVLIGKDHHIIGVQANNWSEYFYNNDIREYHMYPRSLALAEVAWTDAKRKNYVDFERRINNAYVRLDGHGVNYHIPLPEQPGGSCDHIAFTDSVSLEFTTSRPISLVYTLDGTEPGVSSEIYTSPLSFYQNGILKIASLLSSGKLSKVRTIQIEKQVLLPAVDVEGSFHGLNMEVTYGMFLNMQEFMKTGKSVDVSTDIRETGELTSFVPSTNSMRDVRQYAAVATGFIDIPENGEGHHHHHH”, the “soluble on expression in E. coli” value is recorded as “not soluble”.

As for “MGGCCSQEGCNTRPRYLPLKCYPGLPMRATRRLDLSAVERALREVQGRFAELSQHFTEPRDPFTDEVLLNVVEGYALIDDYVARGIDLFDLQQLNLMLEINATVLCGSDPARRLEFAPHLAATEAHFFNNVEGGIKDLYNWYCAYRSDSIWKRAAGVYVRILSKPQLFIEGNNRTGSLIVSYLLMRAGLPPFVLSLDNAEGYFNPSSVIRNSAKHGVKALYELPKIKKKYAAFLEAKAPEPGKFFLNGTPVPACEGSRLEHHHHHH”, the “soluble on expression in E. coli” value is given as “soluble”.

“MGSDKIHHHHHHMTTARRQLIDAESTPFYHVINRCVRRAFLCGEDALSGRSYEHRRDWIVDKIKQLSSVFCIDVCAYAVMSNHYHLVLKINLATQKRLSHFEVIERWTQLFFGHPVAAKFLKGDSLEEGERLLLDSLIGEWQERLGSISWFMRCLNEEIARKANREDGCKGVFWEGRFKSQALLDEQALLACMMYVDLNPIRAGIADSLQGSDYTSIQERIEELASPQSAPVALKPLLAFDGAAIATEQCGIPFHFADYLELIDWTGRAVREDKRGFIATTRPKLLAELGISDDAWITSAKEFRRQYSGISGRWDAMCAMKAKCGGKWCRGKQQSASIHPD”: the “soluble on expression in E. coli” value is “not soluble”.

For “MGSDKIHHHHHHMARKDKIVTPSVTQKLQSLGYNVADWDDSKTTSKLTDEIITVLKKASKSENGNEGYPDRIYCNKKKKLLILVEEKPTMQEHNIESIKSGCIAGLKWYLKQFLSEKFSSWKIIGIAVSGDLSDQYKHKFSCFLIDKQKISLAENVNNFLKENEFIALFNNIDEEKAISKVTKVSKKINKLLRSIDSQKRPIILAALMISLYRSEKYDNNFPDIYENYNSEQILNNIYPTVKNILTAEDVPEEKLKSLELELNSINQDPSLKNTNILKEILKELDENIIQLFNDTFSTTSNYDIMGKFYEEFLRFAGVSNVKKGIVLTPRHIATLFTKLIPFKKNDKILDLCCGTGAFLIAGMNKLLSLKGIDAQNVKSNQLLGFEINPTMYICAISNMLFRGDGKSKIYNMDSINDDKVNKIISESAPTIGFINPPYSGKENKEDPTPKEITFLKKC”, the “soluble on expression in E. coli” value is given as “not soluble”.

In the case of “MGSDKIHHHHHHMTRLEIVDSKLRQAKKTEEYFNAIRTNIQFSGKENKILAITSVREGEGKSTASTSLALSLAQAGFKTLLIDADTRNSVMSGTFKATGTIKGLTNYLSGNADLGDIICETNVPRLMVVPSGKVPPNPTALLQNAYFNKMIEAIKNIFDYIIIDTPPIGLVVDAAIIANACDGFILVTQAGRIKRNYVEKAKEQMEQSGSKFLGIILNKVNESVATYGDYGNYGKRDRKRK”, the “soluble on expression in E. coli” value was “not soluble”.

As to “MSAAEGAVVFSEEKEALVLKSWAIMKKDSANLGLRFFLKIFEIAPSARQMFPFLRDSDVPLETNPKLKTHAVSVFVMTCEAAAQLRKAGKITVRETTLKRLGGTHLKYGVADGHFEVTRFALLETIKEALPADMWGPEMRNAWGEAYDQLVAAIKQEMKPAE”, the “soluble on expression in E. coli” value is given as “soluble”.

Take “MTTNAIDGSLWLTNAVQPERKTGNQILGKDDFLKILLAQLENQDPLNPMEDKDFIAQMASFSSLEQMMNIANLMQQWMQASSRDALLRYSEWIGKTVHWQDGETMMSAVVQSVMQKDGQVTLGLDNGTTIAADAVVKVEQKG”: the “soluble on expression in E. coli” value is on record as “not soluble”.

As to “MIRSSKRSLSRDLVRFVQYVDDCVVKRYGFVVKSGSGIKLNGKKPQGFGTSSEDEDNNADMSDDSEEVPVSSIDKRKVASSKSRTGVVIEGDVVKPPVMKFVVLDKNRNVCQVYGNRHDLTSSAEDDSVDGDEETLVMSRDNGRKQSLKARNGVSVKGGGGKTTRVVKTVSFDENGNVCKVYGDTHDLTSSAEDDDSVDVGEETLVMCRDEGKRRSSKTGSRVLVKGSGGKTNRVVKTVSFDENGNVYKAYGDTPESSIISEEDDSTSGSNEGNGEEKGNVNEVEEIKYVPKENESFEEEEEKETDSENEVSSSEGSEGDKRVTKKEVQHQKGSLMFSPPLPLKMEP”, the “soluble on expression in E. coli” value is recorded as “soluble”.

In the case of “EKKRIESLINNMYDPVIGLDENLKILFVNEQAIKIIGISQEELIGHYTQELAIKNDLVRTLVQDLMVAENTPSNKAIPIKIYSNNKEGYFEKEILHISVTPTGEQVKQLIGHVIILRNIT”, the “soluble on expression in E. coli” value was “not soluble”.
